Source: patent publication US9598481B2 (priority 2012, dated 2017)
Residue numbers refer to the chain shown, from its start. “And” between values parts separate entries of the source, which are not always exact repeats. Equal entries are not always repeated.

Key:
[1] = test system: H5N1 A/Vietnam/1203/04 influenza A virus; assay type: in vivo, ferrets (Mustela putorius furo)
[2] = test system: Group1 influenza A virus strains; assay type: cell-based
[3] = test system: hemagglutinin H3 from A/HK/8/1968; assay type: binding, influenza A virus
[4] = test system: hemagglutinin H1 from A/NWS/1933; assay type: binding, influenza A virus
[5] = test system: Group2 influenza A virus strains; assay type: cell-based
[6] = test system: H3N2 A/Port Chalmers/1/1973; design: species or system DBA/2J mice; details: mouse, in vivo
[7] = test system: HIV pseudotype virus bearing hemagglutinin H5 from H5N1/Vietnam/1203/2004; assay type: cell-based
[8] = test system: H3N2 A/Aichi/2/1968; design: species or system DBA/2J mice; details: mouse, in vivo
[9] = test system: H3N2 A/Hong Kong/1/1968; design: species or system DBA/2J mice; details: mouse
[10] = test system: H3N2 A/Aichi/2/1968; assay type: cell-based, influenza A virus; details: read-out: in vitro IC50
[11] = test system: H3N2 A/Port Chalmers/1/1973; assay type: cell-based, influenza A virus; details: read-out: in vitro IC50
[12] = read-out: EC50 competition with biotinylated mAb 39.29

## CCOC(=O)C1=C[C@@H](OC(CC)CC)[C@H](NC(C)=O)[C@@H](N)C1 [oseltamivir, oseltamivir phosphate, reference compound]
[1]; twice-daily oral 25 mg/kg for 5 days, irrespective of treatment initiation time (48 or 72 hours)
  mortality: 50%

B1: mAb23.06C2: phage-display derived anti-hemagglutinin monoclonal antibody; VL SEQ ID NO:170, VH SEQ ID NO:168 (antibody, V domains shown)
VH: QVQLQESGPGLVKPSETLSLTCTVSGGLIGTGSYYWGWIRQTPGKGMEWIGSISYSGSTYYHPSLKSRVTISDDTSKNQLFLKLRSVTAADTAQYYCARYNWGIRYFDFWGRGTLVTVSS
VL: DIQLTQSPLSPPVTLGQPASISCRSSQSLLYTDGFTYLSWYHQRPGQSPRRLIYKISNRDSGVPDRFSGSGSGTDFTLKISRVEAEDVGVYYCMQATHWPLTFGEGTKVEIK
[2]
  in vitro neutralization of Group1 influenza A virus panel: not able to neutralize any Group1 influenza A virus isolate tested
[3]
  competition for binding with mAb 39.29 on Group2 H3 hemagglutinin stalk epitope: compete for binding
[4]
  competition for binding of mAb 39.29 on Group1 H1 hemagglutinin stalk: do not compete for binding
[5]
  in vitro neutralization of Group2 influenza A virus panel: able to neutralize the entire Group2 influenza A virus panel examined

B2: mAb 39.29 NCv1: anti-hemagglutinin monoclonal antibody; VL SEQ ID NO:144, VH SEQ ID NO:142 (antibody, V domains shown)
VH: QVQLVESGGGVVQPGKSPRLSCAASGPTFSSYAVHWVRQAPGKGLEWVTLISYDGANQYYADSVKGRFTISRDNSKNTVYLQMNSLRPEDTAVYYCAVPGPVFGIFPPWSYFDNWGQGILVTVSS
VL: EIVLTQSPATLSVSPGERATLSCRASQVISHNLAWYQQKPGQAPRLLIYGASTRASGIPARFSGSGSGTDYTLTITSLQPEDFAVYYCQHYSNWPPRLTFGGGTKVEIK
[6]
  efficacy at all tested doses: very efficacious
[7]
  in vitro neutralization of pseudotype virus expressing hemagglutinin H5: dose-dependent in vitro neutralization
[8]
  efficacy at all tested doses: very efficacious
[9]; in vivo
  mice protected (survival): 87.5% and 75%
[9]; iv
  minimum efficacious dose in vivo: 15 mg/kg
[10]
  IC50: 35 nM
[11]
  IC50: 2.9 nM

B3: mAb 39.18 B11: anti-hemagglutinin monoclonal antibody; VL SEQ ID NO:156, VH SEQ ID NO:154 (antibody, V domains shown)
VH: EVQLVQSGAEVKKPGSSMKVSCKASGSIFSNYGISWVRQAPGQGLEWMGGIIPIFGAANYAQKFQGRVTITADESTSTVYMEVRSLRSEDTAVYYCARRQQLYKGYYHHWGQGTLVTVSS
VL: EIVLTQSPATLSVSPGERVTLSCRASQSVANNLAWYQQKPGQSPRLLIYGASTRDTGIPARFSGSGSGTEFTLTISSLQSEDFAVYYCQQYNNWPPMYTFGQGTKLEIK
[2]
  in vitro neutralization of Group1 influenza A virus panel: effective at in vitro neutralization of the entire Group1 influenza A virus panel examined
[5]
  in vitro neutralization of Group2 influenza A virus panel: not able to neutralize Group2 influenza A virus strains

B4: mAb 36.89: anti-hemagglutinin monoclonal antibody; VL SEQ ID NO:162, VH SEQ ID NO:160 (antibody, V domains shown)
VH: QVQLVQSGAELKRPGASVKVSCKTSGYSFNNYGINWVRQAPGQGLEWMGWISAYTGNTHYAKNFEGRVTLTTDTSTSTAYMEVRSLRSDDSAVYFCARAMIQGVVTLYLRPGDYWGQGTLVTVSS
VL: DIVMTQSPSTLSASVGDRVTITCRASQSIGNWLAWYQQKPGKAPKLLIYKVSTLESGVPSRFSGSGSGTEFTLTINSLQPDDFATYYCQRYTSNSQGFTFGQGTKLEIK
[2]
  in vitro neutralization of Group1 influenza A virus panel: not able to neutralize any Group1 influenza A virus isolate tested
[3]
  competition for binding with mAb 39.29 on Group2 H3 hemagglutinin stalk epitope: compete for binding
[4]
  competition for binding of mAb 39.29 on Group1 H1 hemagglutinin stalk: do not compete for binding
[5]
  in vitro neutralization of Group2 influenza A virus panel: able to neutralize the entire Group2 influenza A virus panel examined

B5: mAb9.01F3: phage-display derived anti-hemagglutinin monoclonal antibody; VL SEQ ID NO:166, VH SEQ ID NO:164 (antibody, V domains shown)
VH: QVQLVQSGAEVKQPGASVKVSCKASGYTFNAYYIHWVRQAPGQGLEWMGWINPNFGGTHYARKFQGRVTMTRDASINTAYMELDRLISDDTAVYYCVRWRAAAVIMDQFYKMDVWGQGTLVTVSS
VL: SSELTQPPSASGTPGQRVTISCSGSTSNIGYNPVSWYQQVPGTAPKLLIYSNTERPSGVPDRFSGSKSGTSASLAISGLQSEDEADYYCAAWDDTLNGPVFGGGTKVTVL
[2]
  in vitro neutralization of Group1 influenza A virus panel: not able to neutralize any Group1 influenza A virus isolate tested
[3]
  competition for binding with mAb 39.29 on Group2 H3 hemagglutinin stalk epitope: compete for binding
[4]
  competition for binding of mAb 39.29 on Group1 H1 hemagglutinin stalk: do not compete for binding
[5]
  in vitro neutralization of Group2 influenza A virus panel: able to neutralize the entire Group2 influenza A virus panel examined

B6: mAb 81.39 SVSH-NYP: anti-hemagglutinin monoclonal antibody; VL SEQ ID NO:117, VH SEQ ID NO:115 (antibody, V domains shown)
VH: EVQLVESGGGVVQPGRSLRLSCAASGFAFHNRAMHWVRQAPGKGLEWVALIYFDGSKQYYADSVKGRFTISRDNSKNTVFLQMNSLRPEDTAVYYCAVPGPIFGIFPPWSYFDHWGQGILVTVSS
VL: EIVLTQSPATLSVSPGERATLSCRASQSVSHNLAWYQQKPGQAPRLLVYSASTRATGIPARFSGSGSGTEFTLAISSLQSEDFAVYYCQHYTNYPPRLTFGGGSKVEIK
[2]
  in vitro neutralization of Group1 influenza A virus panel: effective at the in vitro neutralization of all influenza A virus strains tested
[5]
  in vitro neutralization of Group2 influenza A virus panel: effective at the in vitro neutralization of all influenza A virus strains tested

B7: mAb 81.39 B1C1: anti-hemagglutinin monoclonal antibody; VL SEQ ID NO:113, VH SEQ ID NO:111 (antibody, V domains shown)
VH: B6 VH with E1Q
VL: B6 VL with S30D, H31S, Y94W
[1]; in vivo, iv, 25 mg/kg
  survival: 100% and 80%

B8: mAb 81.39: anti-hemagglutinin monoclonal antibody 81.39, variant not specified in the competition ELISA (antibody, V domains shown)
VH: B6 VH
VL: B6 VL with Y94W
[3]
  competition for binding with mAb 39.29 on Group2 H3 hemagglutinin stalk epitope: compete for binding
[3]; [12]
  EC50: 4.21 nM
[4]
  competition for binding of mAb 39.29 on Group1 H1 hemagglutinin stalk: compete for binding
[4]; [12]
  EC50: 2.15 nM
